# Experimental data: patent publication US20190016771A1 (Hoffmann-La Roche, published 2019)
# T1: human fibroblast activation protein (FAP) on the cell surface (human, UniProt Q12884 1-760)
# T1 construct: also called huFAP; NIH/3T3-huFAP clone 39 cells
# T1 sequence: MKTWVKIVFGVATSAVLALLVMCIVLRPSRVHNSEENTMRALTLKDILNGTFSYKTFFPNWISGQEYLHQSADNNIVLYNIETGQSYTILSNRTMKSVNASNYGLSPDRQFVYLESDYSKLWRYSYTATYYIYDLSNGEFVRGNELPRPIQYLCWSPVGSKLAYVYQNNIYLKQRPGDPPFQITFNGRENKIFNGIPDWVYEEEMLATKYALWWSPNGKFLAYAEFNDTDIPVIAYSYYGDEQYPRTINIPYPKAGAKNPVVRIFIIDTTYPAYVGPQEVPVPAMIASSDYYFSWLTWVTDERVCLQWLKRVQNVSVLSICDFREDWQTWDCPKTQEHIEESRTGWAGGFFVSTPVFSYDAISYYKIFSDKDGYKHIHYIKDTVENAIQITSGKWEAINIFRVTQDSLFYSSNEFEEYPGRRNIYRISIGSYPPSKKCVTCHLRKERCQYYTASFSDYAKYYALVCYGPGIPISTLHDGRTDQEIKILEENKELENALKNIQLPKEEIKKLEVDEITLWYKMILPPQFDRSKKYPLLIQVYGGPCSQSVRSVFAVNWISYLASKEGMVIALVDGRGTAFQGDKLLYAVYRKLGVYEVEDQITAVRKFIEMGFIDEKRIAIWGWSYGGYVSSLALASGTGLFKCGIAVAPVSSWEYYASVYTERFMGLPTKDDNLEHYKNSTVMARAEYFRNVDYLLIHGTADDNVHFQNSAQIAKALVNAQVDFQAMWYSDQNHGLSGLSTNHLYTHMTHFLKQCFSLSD
# T2: human OX40 (CD134) on the cell surface (human, UniProt P43489 29-277)
# T2 construct: whole, on cells; also called hOx40
# T2 sequence (looked up): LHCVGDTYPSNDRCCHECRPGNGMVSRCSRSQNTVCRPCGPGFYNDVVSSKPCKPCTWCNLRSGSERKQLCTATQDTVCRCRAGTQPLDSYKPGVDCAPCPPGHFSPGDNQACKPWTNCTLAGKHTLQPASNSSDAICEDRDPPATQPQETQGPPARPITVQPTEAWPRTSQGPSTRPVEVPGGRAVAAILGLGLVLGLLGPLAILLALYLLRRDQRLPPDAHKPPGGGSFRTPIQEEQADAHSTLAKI
# What was measured:
# [1] = biological target: T1, human fibroblast activation protein …; experiment: flow cytometry on WM-266-4 cells, FITC anti-human IgG F(ab')2 detection
# Description: Cells were stained for 120 minutes at 4° C. in the dark in 50 μL/well 4° C. cold FACS buffer (DPBS (Gibco by Life Technologies, Cat. No. 14190 326) w/ BSA (0.1% v/w, Sigma-Aldrich, Cat. No. A9418) containing titrated huCMP trimeric OX40 ligand-containing antigen binding molecules. After three times washing with excess FACS buffer, cells were stained for 60 minutes at 4° C. in the dark in 25 μL/well 4° C. cold FACS buffer containing Fluorescein isothiocyanate (FITC)-conjugated AffiniPure anti-human IgG F(ab′)₂-fragment-specific goat IgG F(ab′)₂ fragment (Jackson ImmunoResearch, Cat.-No. 109-096-097).
# Plates were finally resuspended in 90 μL/well FACS-buffer containing 0.2 μg/mL DAPI (Santa Cruz Biotec, Cat. No. Sc-3598) and acquired the same day using 5-laser LSR-Fortessa (BD Bioscience with DIVA software).
# [2] = biological target: T2, human OX40 (CD134) on the cell surface; experiment: flow cytometry on activated human CD4+ T cells (OX40 positive); activated OX40 positive CD4+ T cells
# Description: (§1) PBMCs were used directly after isolation (binding on resting human PBMCs) or they were stimulated to receive a strong human Ox40 expression on the cell surface of T cells (binding on activated human PBMCs). Therefore naïve PBMCs were cultured for three days in T cell medium supplied with 200 U/mL Proleukin (Novartis) and […] PHA-L (Sigma-Aldrich, L2769-10) in 6-well tissue culture plate at 37° C. and 5% CO₂.
# (§2) Cells were stained for 120 minutes at 4° C. in the dark in 50 μL/well 4° C. cold FACS buffer containing titrated anti-Ox40 antibody constructs. After three times washing with excess FACS buffer, cells were stained for 1 h at 4° C. in the dark in 25 μL/well 4° C. cold FACS buffer containing a mixture of fluorescently labeled anti-human CD4 (clone OKT4, mouse IgG1 k, BioLegend, Cat.-No. 317428), anti-human CD8 (clone RPa-T8, mouse IgG1k, BD Pharmingen, Cat.-No. 555368) and Fluorescein isothiocyanate (FITC)-conjugated AffiniPure anti-human IgG F(ab′)2-fragment-specific goat IgG F(ab′)₂ fragment (Jackson ImmunoResearch, Cat.-No. 109-096-097). Plates were finally resuspended in 90 μL/well FACS-buffer containing 0.2 μg/mL DAPI (Santa Cruz Biotec, Cat. No. Sc-3598) and acquired the same day using 5-laser LSR-Fortessa (BD Bioscience with DIVA software).
# [3] = biological target: T2, human OX40 (CD134) on the cell surface; experiment: flow cytometry on activated human CD8+ T cells (OX40 positive); activated OX40 positive CD8+ T cells
# Description: as §1, §2
binder,measurement,setting,value
"FAP(28H1)-targeted human CMP trimeric OX40L-containing antigen binding molecule (other, also called trimeric FAP-huCMP-OX40L) EVQLLESGGGLVQPGGSLRLSCAASGFTFSSHAMSWVRQAPGKGLEWVSAIWASGEQYYADSVKGRFTISRDNSKNTLYLQMNSLRAEDTAVYYCAKGWLGNFDYWGQGTLVTVSSASTKGPSVFPLAPSSKSTSGGTAALGCLVKDYFPEPVTVSWNSGALTSGVHTFPAVLQSSGLYSLSSVVTVPSSSLGTQTYICNVNHKPSNTKVDKKVEPKSCDGGGGSGGGGSEEDPCACESLVKFQAKVEGLLQALTRKLEAVSKRLAILENTVVSGGGGSGGGGSGGGGSGGGGSQVSHRYPRIQSIKVQFTEYKKEKGFILTSQKEDEIMKVQDNSVIINCDGFYLISLKGYFSQEVDISLHYQKDEEPLFQLKKVRSVNSLMVASLTYKDKVYLNVTTDNTSLDDFHVNGGELILIHQNPGEFCVL light: EIVLTQSPGTLSLSPGERATLSCRASQSVSRSYLAWYQQKPGQAPRLLIIGASTRATGIPDRFSGSGSGTDFTLTISRLEPEDFAVYYCQQGQVIPPTFGQGTKVEIKRTVAAPSVFIFPPSDEQLKSGTASVVCLLNNFYPREAKVQWKVDNALQSGNSQESVTEQDSKDSTYSLSSTLTLSKADYEKHKVYACEVTHQGLSSPVTKSFNRGEC",EC50,[1],17.3 nM
same,EC50,[2],10.2 nM
same,EC50,[3],3 nM
